Where a chain is given by its changes, count along the chain named. Numbers in names are those of the source.
T1: Biotin-FcγRIIB (human FcγRIIB, Sino Biological) (human, UniProt P31994 43-217, limits assumed, biotin-labeled)
T1 construct: Used at 1 µg/ml with Streptavidin-APC for flow cytometry and sorting; also called CD32b
T1 sequence (looked up): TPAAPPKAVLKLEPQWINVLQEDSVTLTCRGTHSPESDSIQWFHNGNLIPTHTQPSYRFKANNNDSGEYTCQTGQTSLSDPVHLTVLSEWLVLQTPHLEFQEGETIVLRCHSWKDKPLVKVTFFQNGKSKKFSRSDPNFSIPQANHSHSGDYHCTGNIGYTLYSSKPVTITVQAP

T2: Biotin-FcγRIIB (human, UniProt P31994 43-217, limits assumed, biotin label)
T2 construct: Soluble labelled protein used to stain and sort the display cells; also called human FcγRIIB; CD32b
T2 sequence (looked up): T1 sequence (looked up)

T3: FcγRIIA^131H (human, UniProt P12318 34-217, biotin-labeled)
T3 construct: extracellular domain; Bought protein; also called RIIAH
T3 sequence (looked up): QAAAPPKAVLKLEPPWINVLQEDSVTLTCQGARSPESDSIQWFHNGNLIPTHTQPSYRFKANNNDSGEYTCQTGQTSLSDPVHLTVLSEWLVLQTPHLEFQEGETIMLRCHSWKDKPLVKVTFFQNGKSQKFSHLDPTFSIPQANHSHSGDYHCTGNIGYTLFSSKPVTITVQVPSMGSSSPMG

T4: FcγRIIB (human, UniProt P31994 43-217, biotin-labeled)
T4 construct: extracellular domain; Bought protein; also called CD32b
T4 sequence (looked up): T1 sequence (looked up)

T5: FcγRIIA^131R (human, UniProt P12318 34-217, biotin-labeled)
T5 construct: extracellular domain; Bought protein; also called RIIAR
T5 sequence (looked up): T3 sequence (looked up) with H134R

B1: human IgG2 anti-mouse CD40 surface displayed antibody, V266G/P271C (antibody, name in EU numbering)
light chain (with the P2A rest): DTVLTQSPALAVSPGERVTISCRASDSVSTLMHWYQQKPGQQPKLLIYLASHLESGVPARFSGSGSGTDFTLTIDPVEADDTATYYCQQSWNDPWTFGGGTKLELKRTVAAPSVFIFPPSDEQLKSGTASVVCLLNNFYPREAKVQWKVDNALQSGNSQESVTEQDSKDSTYSLSSTLTLSKADYEKHKVYACEVTHQGLSSPVTKSFNRGECGSGATNFSLLKQAGDVEENPG
heavy chain: EVQLVESDGGLVQPGRSLKLPCAASGFTFSDYYMAWVRQAPTKGLEWVASISYDGSSTYYRDSVKGRFTISRDNAKSTLYLQMDSLRSEDTATYYCGRHSSYFDYWGQGVMVTVSSASTKGPSVFPLAPCSRSTSESTAALGCLVKDYFPEPVTVSWNSGALTSGVHTFPAVLQSSGLYSLSSVVTVPSSNFGTQTYTCNVDHKPSNTKVDKTVERKCCVECPPCPAPPVAGPSVFLFPPKPKDTLMISRTPEVTCVVVDGSHEDCEVQFNWYVDGVEVHNAKTKPREEQFNSTFRVVSVLTVVHQDWLNGKEYKCKVSNKGLPAPIEKTISKTKGQPREPQVYTLPPSREEMTKNQVSLTCLVKGFYPSDIAVEWESNGQPENNYKTTPPMLDSDGSFFLYSKLTVDKSRWQQGNVFSCSVMHEALHNHYTQKSLSLSPGKLEPPPSTVSNMATVAVLVVLGAAIVTGAVVAFVMKMRRRNTGGKGGDYALAPGSQTSDLSLPDCKVMVHDPHSLA
notes: m1 with these Fc mutations (Eu numbering); copies: 2 + 2
B2: human IgG2 anti-mouse CD40 surface displayed antibody, S267V/S298L/L328W (antibody, name in EU numbering)
light chain (with the P2A rest): B1 light chain (with the P2A rest)
heavy chain: B1 heavy chain with G261V, S262V, C266P, S293L, L323W
notes: As m1 with the Fc mutations
B3: human IgG2 anti-mouse CD40 surface displayed antibody, H268D/S298L/L328W (antibody, name in EU numbering)
light chain (with the P2A rest): B1 light chain (with the P2A rest)
heavy chain: B1 heavy chain with G261V, H263D, C266P, S293L, L323W
notes: As m1 with the Fc mutations
B4: human IgG2 anti-mouse CD40 surface displayed antibody, V266L/L328W (antibody, name in EU numbering)
light chain (with the P2A rest): B1 light chain (with the P2A rest)
heavy chain: B1 heavy chain with G261L, C266P, L323W
notes: As m1 with the Fc mutations
B5: human IgG2 anti-mouse CD40 surface displayed antibody, S239V/V266L/S298L/L328W (antibody, name in EU numbering)
light chain (with the P2A rest): B1 light chain (with the P2A rest)
heavy chain: B1 heavy chain with S234V, G261L, C266P, S293L, L323W
notes: As m1 with the Fc mutations
B6: human IgG2 anti-mouse CD40 surface displayed antibody, S267V/S298G/L328W (antibody, name in EU numbering)
light chain (with the P2A rest): B1 light chain (with the P2A rest)
heavy chain: B1 heavy chain with G261V, S262V, C266P, S293G, L323W
notes: As m1 with the Fc mutations
B7: human IgG2 anti-mouse CD40 surface displayed antibody, V266L/S298L/L328W (antibody, name in EU numbering)
light chain (with the P2A rest): B1 light chain (with the P2A rest)
heavy chain: B1 heavy chain with G261L, C266P, S293L, L323W
notes: As m1 with the Fc mutations
B8: IgG2 N297A (antibody, name in EU numbering)
heavy: QVQLQESGPGLVKPSGTLSLTCAVSGGSISSSIWWSWVRQPPGKGLEWIGEIHHSGNTNCNPSLKSRVTISIDKSKNQFSLKLTSVTAADTAVYYCARAGTGTTLDYWGQGTLVTVSSASTKGPSVFPLAPCSRSTSESTAALGCLVKDYFPEPVTVSWNSGALTSGVHTFPAVLQSSGLYSLSSVVTVPSSNFGTQTYTCNVDHKPSNTKVDKTVERKCCVECPPCPAPPVAGPSVFLFPPKPKDTLMISRTPEVTCVVVDVSHEDPEVQFNWYVDGVEVHNAKTKPREEQFASTFRVVSVLTVVHQDWLNGKEYKCKVSNKGLPAPIEKTISKTKGQPREPQVYTLPPSREEMTKNQVSLTCLVKGFYPSDIAVEWESNGQPENNYKTTPPMLDSDGSFFLYSKLTVDKSRWQQGNVFSCSVMHEALHNHYTQKSLSLSPGK
light: EIVLTQSPGTLSLSPGERATLSCRASQSVSGDYLAWYQQKLGQAPRLLIYGASIRATGIPDRFSGSGSGTDFTLTISKLEPEDFAVYYCQQYGSSPLTFGGGTKVEIKRTVAAPSVFIFPPSDEQLKSGTASVVCLLNNFYPREAKVQWKVDNALQSGNSQESVTEQDSKDSTYSLSSTLTLSKADYEKHKVYACEVTHQGLSSPVTKSFNRGEC
notes: Entries include an unstated signal peptide
B9: anti-human OX40 IgG2 antibody Mut_1 (L328W) (antibody, name in EU numbering)
heavy: B8 heavy with A294N, L325W
light: B8 light
notes: Substitutions in Eu numbering; entries include an unstated signal peptide

What was measured:
[1] = biological target: T1, Biotin-FcγRIIB (human FcγRIIB, Sino …); experiment: NGS after FACS sort of 3T3-displayed Library2 for biotin-FcγRIIB binding
Biotin-FcγRIIB = biological target: T2, Biotin-FcγRIIB; experiment: NGS of 3T3 display library Cmix flow-sorted for FcγRIIB binding
FcγRIIA^131H = biological target: T3, FcγRIIA^131H; experiment: ELISA, coated antibody, biotin-FcγR;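 for Absorbance value: antibody coated at 2 µg/mL at 100 µL per well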
Procedure: (§1) One hundred μl (2 μg/mL) of antibody or mutant thereof were added to the enzyme-linked plate to be coated overnight, then the supernatant was discarded. The plate was blocked with PBS containing 1% BSA for 2 hours, and washed with PBST (PBS containing 0.05% Tween 20). Biotin-labeled FcγR extracellular domain protein (Beijing Sino Biological Co., Ltd) of appropriate concentration was added and incubated at room temperature for 1 hour, then the supernatant was discarded and the plate was washed with PBST. The Biotin-labeled protein was detected by incubating with Streptavidin-HRP (BD BioSciences) at room temperature for 1 hour. The supernatant was removed, and the color-developing solution was added for color development for 20-40 minutes to determine the absorbance of 650 nm (A650).
(§2) Anti-human OX40 antibodies containing these new Fc mutation combinations are expressed and the binding property of the mutant antibody to FcγR are analyzed by Enzyme-linked immunosorbent assay (ELISA).

FcγRI = biological target: T6, FcγRI (human, UniProt P12314 16-292, biotin-labeled); experiment: ELISA, coated antibody, biotin-FcγR;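 for Absorbance value: antibody coated at 2 µg/mL at 100 µL per well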
T6 construct: extracellular domain; Bought protein; also called CD64
Procedure: as §1, §2

FcγRIIIA^158V = biological target: T7, FcγRIIIA^158V (human, UniProt P08637 17-208, biotin-labeled); experiment: ELISA, coated antibody, biotin-FcγR;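 for Absorbance value: antibody coated at 2 µg/mL at 100 µL per well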
T7 construct: extracellular domain; Bought protein; also called RIIIAV; CD16a 158V
Procedure: as §1, §2

FcγRIIB [2] = biological target: T4, FcγRIIB; experiment: ELISA, coated antibody, biotin-FcγR;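 for Absorbance value: antibody coated at 2 µg/mL at 100 µL per well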
Procedure: as §1, §2

FcγRIIB [3] = biological target: T4, FcγRIIB; experiment: ELISA; relative affinity to FcγRIIB over that to FcγRIIA131R
Procedure: as §1, §2

FcγRIIIA^158F = biological target: T8, FcγRIIIA^158F (human, UniProt P08637 17-208, biotin-labeled); experiment: ELISA, coated antibody, biotin-FcγR;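 for Absorbance value: antibody coated at 2 µg/mL at 100 µL per well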
T8 construct: extracellular domain; Bought protein; also called RIIIAF
Procedure: as §1, §2

FcγRIIA^131R = biological target: T5, FcγRIIA^131R; experiment: ELISA, coated antibody, biotin-FcγR;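 for Absorbance value: antibody coated at 2 µg/mL at 100 µL per well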
Procedure: as §1, §2

T7 sequence (P08637 17-208 F176V): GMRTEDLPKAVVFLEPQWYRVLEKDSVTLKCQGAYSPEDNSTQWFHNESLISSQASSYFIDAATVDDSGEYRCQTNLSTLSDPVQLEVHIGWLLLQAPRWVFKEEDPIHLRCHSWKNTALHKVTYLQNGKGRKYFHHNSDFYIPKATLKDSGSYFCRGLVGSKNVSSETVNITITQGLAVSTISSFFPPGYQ
T6 sequence (P12314 16-292): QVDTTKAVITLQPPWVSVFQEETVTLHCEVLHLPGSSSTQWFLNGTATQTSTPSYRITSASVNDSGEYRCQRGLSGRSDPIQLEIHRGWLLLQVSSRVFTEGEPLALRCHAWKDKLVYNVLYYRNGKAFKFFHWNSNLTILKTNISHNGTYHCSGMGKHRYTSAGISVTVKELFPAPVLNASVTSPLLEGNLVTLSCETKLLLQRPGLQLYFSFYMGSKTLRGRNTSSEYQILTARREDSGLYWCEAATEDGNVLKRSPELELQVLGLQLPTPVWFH
T8 sequence (P08637 17-208): as the sequence (P08637 17-208 F176V) above, with V160F counted along it

Row | Binder | enrichment factor, percentage after 1st sorting/percentage before sorting (Biotin-FcγRIIB) [ratio] | enrichment factor, percentage after 2nd sorting/percentage after 1st sorting (Biotin-FcγRIIB) [ratio] | enrichment factor, percentage after 3rd sorting/percentage after 2nd sorting (Biotin-FcγRIIB) [ratio] | enrichment factor, percentage after 3rd sorting/percentage before sorting (Biotin-FcγRIIB) [ratio] | increased factor, mutant enrichment factor/wild-type enrichment factor (Biotin-FcγRIIB) [ratio] | percentage after 1st sorting (Biotin-FcγRIIB) [%] | percentage after 2nd sorting (Biotin-FcγRIIB) [%] | percentage after 3rd sorting (Biotin-FcγRIIB) [%] | percentage before sorting (Biotin-FcγRIIB) [%] | also measured
1 | B1 |  |  |  |  |  |  |  |  |  | Enrichment factor (percentage after sorting/percentage before sorting) [1]: 3.83; Increased factor (enrichment factor/wild-type enrichment factor) [1]: 6.68
2 | B2 | 3.92 | 73.6 | 7.21 | 2080 | 5550 | 0 | 0.13 | 0.9 | 0 | 
3 | B3 |  | 44 | 5.95 |  |  | 0 | 0.21 | 1.25 |  | 
4 | B4 | 4.71 | 53.3 | 5.53 | 1390 | 3700 | 0 | 0.22 | 1.2 | 0 | 
5 | B5 |  | 39.1 | 5.02 |  |  | 0 | 0.07 | 0.33 |  | 
6 | B6 |  | 47.4 | 5.76 |  |  | 0 | 0.03 | 0.19 |  | 
7 | B7 | 21.1 | 64.8 | 6.03 | 8230 | 21900 | 0.06 | 4.14 | 25 | 0 | 
8 | B8 |  |  |  |  |  |  |  |  |  | Absorbance value (FcγRIIA^131H): 0.04 A650; Relative binding affinity RIIAH/G1 (FcγRIIA^131H): 0.08 ratio; Absorbance value (FcγRI): 0.08 A650; Relative binding affinity RI/G1 (FcγRI): 0.03 ratio; Absorbance value (FcγRIIIA^158V): 0.06 A650; Relative binding affinity RIIIAV/G1 (FcγRIIIA^158V): 0.06 ratio; Absorbance value (FcγRIIB [2]): 0.07 A650; Increased factor of RIIB binding compared with wild-type IgG2 (FcγRIIB [2]): 0.93 fold; Relative binding affinity RIIB/G1 (FcγRIIB [2]): 0.09 ratio; RIIB/RIIAR (FcγRIIB [3]): 0.57 ratio
9 | B9 |  |  |  |  |  |  |  |  |  | Absorbance value (FcγRIIIA^158F): 0.07 A650; Relative binding affinity RIIIAF/G1 (FcγRIIIA^158F): 0.38 ratio; Absorbance value (FcγRIIA^131R): 0.22 A650; Relative binding affinity RIIAR/G1 (FcγRIIA^131R): 0.83 ratio; Absorbance value (FcγRIIA^131H): 0.35 A650; Relative binding affinity RIIAH/G1 (FcγRIIA^131H): 0.62 ratio; Absorbance value (FcγRI): 0.17 A650; Relative binding affinity RI/G1 (FcγRI): 0.06 ratio; Absorbance value (FcγRIIIA^158V): 0.09 A650; Relative binding affinity RIIIAV/G1 (FcγRIIIA^158V): 0.09 ratio; Absorbance value (FcγRIIB [2]): 0.64 A650; Increased factor of RIIB binding compared with wild-type IgG2 (FcγRIIB [2]): 8.51 fold; Relative binding affinity RIIB/G1 (FcγRIIB [2]): 0.85 ratio; RIIB/RIIAR (FcγRIIB [3]): 1.02 ratio

Source: patent US20230220042A1 (SHANGHAI JIAO TONG UNIVERSITY SCHOOL OF MEDICINE, published 2023)
